Experimental data: patent US20070292347A1 (LONDON HEALTH SCIENCES CENTRE RESEARCH, published 2007)
Square brackets hold non-standard residues; d marks the D form. Ends that are not written are not given here. Cit = NC(=O)NCCC[C@H](N)C(=O)O

Experiments:
[1] = molecular target: T1, purified HLA-DRB1*0404 molecule (human); test: peptide competition assay, displacement of radio-labelled peptide probe from purified MHC class II
T1 construct: Purified MHC class II molecule
Excerpt: (§1) Results are expressed as the inverse of the IC₅₀ values measured in nM.

[2] = molecular target: T2, purified HLA-DRB1*0101 molecule (human); test: as above
T2 construct: Purified MHC class II molecule
Excerpt: as §1

[3] = molecular target: T3, purified HLA-DRB1*0401 molecule (human); test: as above
T3 construct: Purified MHC class II molecule
Excerpt: as §1

[4] = molecular target: T4, purified HLA-DRB1*0802 molecule (human); test: peptide competition assay on purified MHC class II
T4 construct: Purified MHC class II molecule
Excerpt: as §1

[5] = molecular target: T5, purified HLA-DRB1*1101 molecule (human); test: peptide competition assay on purified MHC class II
T5 construct: Purified MHC class II molecule
Excerpt: as §1

[6] = molecular target: T6, purified HLA-DRB1*0301 molecule (human); test: peptide competition assay on purified MHC class II
T6 construct: Purified MHC class II molecule
Excerpt: as §1

[7] = molecular target: T7, purified HLA-DRB1*1302 molecule (human); test: peptide competition assay on purified MHC class II
T7 construct: Purified MHC class II molecule
Excerpt: as §1

B1: Vim R70Cit, altered human vimentin peptide 65-77 (peptide)
peptide: SAVRA[Cit]SSVPGVR
notes: Synthetic peptide; also called Vimentin R70Cit; citrulline containing vimentin peptide
[1]
  fold higher affinity compared to the unmodified peptide (Vim 65-77): 20 fold
[2]
  fold higher affinity compared to the unmodified peptide (Vim 65-77): 100 fold
[3]
  fold higher affinity compared to the unmodified peptide (Vim 65-77): 90 fold

B2: Vim 65-77, human vimentin peptide 65-77 (peptide)
peptide: SAVRARSSVPGVR
notes: Synthetic peptide (Genemed Synthesis); also called Vimentin 65-77; unmodified vimentin peptide
[4]
  binding result: binds
[5]
  binding result: binds
[6]
  binding result: binds
[7]
  binding result: binds
